Source: patent US9073989B2, “Antibiotic comprising an antibody mimetic, its preparation methods and uses thereof” (PROTEIN DESIGN LAB, LTD, priority 2011, dated 2015)
Values after ≈ are worked out from the molar mass of the structure shown. Values joined by “and” are separate entries in the source; they are usually repeats but may differ in a detail not shown here. Identical values can stand only once. “Also recorded” adds a separate entry of the source. Like-named read-outs stand apart in the source and are kept apart here.

Assays:
[1] = system: vancomycin-resistant Enterococcus faecalis (ATCC 700802); format: cell-based; details: MH medium
[2] = system: methicillin-resistant Staphylococcus aureus (ATCC BAA-42); test: Minimum inhibitory concentration by agar dilution method; format: cell-based
[3] = system: Nesseria meningitidis (No. 29332); test: as above; format: cell-based; details: Embodiment 4, FIG. 6A, blood-chocolate medium with Columbia blood agar base
[4] = system: multi-drug resistant Pseudomonas aeruginosa (isolated by West China Hospital, No. 13578); test: as above; format: cell-based; details: for MIC in terms of molecular weight standard: Embodiment 3, converted from μg/ml; for MIC: MH medium
[5] = system: Mycobacterium tuberculosis (the standard strains H37RV); test: In vivo protection of mice infected by Mycobacterium tuberculosis; design: species or system BalB/c mice; details: for weight of mice during experiment: during 5 weeks treatment; for lung by microscope (pathological section): 5 weeks treatment, magnification 200, FIG. 11
[6] = system: Nesseria meningitidis (No. 29332); test: In vivo protection of mice infected by fatal dose of Nesseria meningitidis; details: 1.5 mg/kg intravenous 1 hour after intraperitoneal fatal dose; for survival rate in 8 days: 10 mice per group
Description: The mice were given an intraperitoneal injection of glucose solution of ferrous by 20 mg/kg, and 1 hour later an intraperitoneal injection of 0.5 ml of bacteria culture containing 1 share of Nesseria meningitidis cultrue solution (its CFU was 2.36×10^9/ml) and 1.5 share of 5% dry yeast solution. One hour later after being given intraperitoneal injection of fatal dose of the bacteria culture, the mice in experimental group were given an intravenous injection of the drugs and the mice in control group were given an intravenous injection of normal saline, all drugs were injected by 1.5 mg/kg), observation every 2 hours for 8 days, the death of mice as the positive results.

[7] = system: Nesseria meningitidis strain No. 29332; test: Inhibiting effect on growth of Nesseria meningitidis in liquid culture (growth curve, optical density); format: cell-based; details: 5 and 10 μg/ml, rabbit blood-chocolate medium, 37° C., hourly A595 nm, FIG. 4
Description: The bacteria was strain No. 29332 Nesseria meningitidis (No. 29332 of bacteria Preservation Center in China, i.e. Center of Medical Devices of National Institute for the Control of Pharmaceutical & biological Products, SDA), two microlitres (μl) of bacteria solution (10^5 CFU/ml) was added in 10 ml rabbit blood-chocolate medium containing 50 mg beef extract, 100 mg tryptone, 50 mg NaCl, 30 mg K2HPO4 and 0.5-0.8 ml off fiber rabbit blood. Five groups were prepared. The first group was added 0.3 M NaCl+50 mM boric acid buffer fluid (i.e. blank preservative fluid for the novel antibiotic, by the same volume with the novel antibiotic solution in the group 4 and 5) as control. Penicillin sodium was added in the second group by 5 μg/ml. The novel antibiotic PMC-AM1 was added in the third group by 5 μg/ml. The novel antibiotic PMC-AM2 was added in the forth group by 5 μg/ml. The novel antibiotic PMC-AM1 was added in the fifth group by 10 μg/ml.
Reactant liquid of the above five groups were respectively put into 100 ml conical flask, and cultured at 37° C. by 200 rpm 100 μl culture solution was sampled per hour and added onto 96-pore ELISA plate for measuring bacteria grown cloudiness by spectrophotometer (A595 nm) color comparison. The bacteria-growth curve was drawn up to compare the bacteriostasis efficacy of novel antibiosis.

[8] = Embodiment 4, FIG. 6C, BM medium
[9] = Pseudomonas aeruginosa, Embodiment 3, agar dilution, 37° C. 18-24 hours, FIG. 5, read-out: MIC
[10] = Embodiment 3, agar dilution, 37° C. 18-24 hours, FIG. 5
[11] = Embodiment 5, FIG. 7B, MH medium

## CC1(C)S[C@@H]2[C@H](NC(=O)[C@H](N)c3ccccc3)C(=O)N2[C@H]1C(=O)O [ampicillin, reference compound]
[1]; Embodiment 4, FIG. 6B
  MIC: 10.78 nmol
[2]; [8]
  MIC: 21.55 nmol
[3]
  MIC: 1.35 nmol

## CC(C)(O/N=C(\C(=O)N[C@@H]1C(=O)N2C(C(=O)[O-])=C(C[n+]3ccccc3)CS[C@H]12)c1csc(N)n1)C(=O)O [ceftazidime]
[4]
  MIC in terms of molecular weight standard: 29.3 nmol
[4]; Embodiment 4, FIG. 6D
  MIC: 29.3 nmol
[4]; [9]
  MIC: 16 µg/mL (≈ 29.3 µM)
[3]
  MIC: 3.02 nmol

## NNC(=O)c1ccncc1 [isoniazid, reference compound]
[5]
  weight of mice during experiment: rise

## C[C@H]1COc2c(N3CCN(C)CC3)c(F)cc3c(=O)c(C(=O)O)cn1c23 [levofloxacin]
[4]
  MIC in terms of molecular weight standard: 43.2 nmol
[4]; Embodiment 4, FIG. 6D
  MIC: 43.2 nmol
[4]; [9]
  MIC: 8 µg/mL (≈ 22.1 µM)

## Cc1onc(-c2ccccc2)c1C(=O)N[C@@H]1C(=O)N2[C@@H]1SC(C)(C)[C@@H]2C(=O)O [oxacillin, reference compound]
[2]; [8]
  MIC: 14.1 nmol

## CN[C@H](CC(C)C)C(=O)N[C@H]1C(=O)N[C@@H](CC(N)=O)C(=O)N[C@H]2C(=O)N[C@H]3C(=O)N[C@H](C(=O)N[C@H](C(=O)O)c4cc(O)cc(O)c4-c4cc3ccc4O)[C@H](O)c3ccc(c(Cl)c3)Oc3cc2cc(c3O[C@@H]2O[C@H](CO)[C@@H](O)[C@H](O)[C@H]2O[C@H]2C[C@](C)(N)[C@H](O)[C@H](C)O2)Oc2ccc(cc2Cl)[C@H]1O [vancomycin, reference compound]
[1]; Embodiment 4, FIG. 6B
  MIC: 21.54 nmol

## gentamicin
[4]; [10]
  MIC: greater than 512 μg/ml
[4]
  MIC in terms of molecular weight standard: greater than 890 nMol
[4]; Embodiment 4, FIG. 6D
  MIC: > 889.4 nmol
[6]
  survival rate in 8 days: 50%

## penicillin
[6]
  death of mice (survival outcome in words): all died in two days

B1: Colicin Ia (protein, UniProt P06716 1-626, looked up)
Colicin-Ia: MSDPVRITNPGAESLGYDSDGHEIMAVDIYVNPPRVDVFHGTPPAWSSFGNKTIWGGNEWVDDSPTRSDIEKRDKEITAYKNTLSAQQKENENKRTEAGKRLSAAIAAREKDENTLKTLRAGNADAADITRQEFRLLQAELREYGFRTEIAGYDALRLHTESRMLFADADSLRISPREARSLIEQAEKRQKDAQNADKKAADMLAEYERRKGILDTRLSELEKNGGAALAVLDAQQARLLGQQTRNDRAISEARNKLSSVTESLNTARNALTRAEQQLTQQKNTPDGKTIVSPEKFPGRSSTNHSIVVSGDPRFAGTIKITTSAVIDNRANLNYLLSHSGLDYKRNILNDRNPVVTEDVEGDKKIYNAEVAEWDKLRQRLLDARNKITSAESAVNSARNNLSARTNEQKHANDALNALLKEKENIRNQLSGINQKIAEEKRKQDELKATKDAINFTTEFLKSVSEKYGAKAEQLAREMAGQAKGKKIRNVEEALKTYEKYRADINKKINAKDRAAIAAALESVKLSDISSNLNRFSRGLGYAGKFTSLADWITEFGKAVRTENWRPLFVKTETIIAGNAATALVALVFSILTGSALGIIGYGLLMAVTGALIDESLVEKANKFWGI
notes: Wild-type bacterial toxin secreted by E. coli forming ion channels
[4]; Embodiment 5, FIG. 7C
  MIC: 0.91 nmol
[1]; Embodiment 5, FIG. 7A
  MIC: 0.91 nmol
[2]; [11]
  MIC: 0.23 nmol
[5]
  lung by microscope (pathological section): the injury was little slighter than the control mouse's
[5]; mouse, in vivo
  mice died before sacrifice (from the forth week): 1 mouse

B2: PMC-AM1: Fusion of antibody mimetic AM1 (VHCDR1-VHFR2-VLCDR3, Seq ID No.2) to C-terminus of Colicin Ia; Seq ID No.6 (protein)
chain: SDPVRITNPGAESLGYDSDGHEIMAVDIYVNPPRVDVFHGTPPAWSSFGNKTIWGGNEWVDDSPTRSDIEKRDKEITAYKNTLSAQQKENENKRTEAGKRLSAAIAAREKDENTLKTLRAGNADAADITRQEFRLLQAELREYGFRTEIAGYDALRLHTESRMLFADADSLRISPREARSLIEQAEKRQKDAQNADKKAADMLAEYERRKGILDTRLSELEKNGGAALAVLDAQQARLLGQQTRNDRAISEARNKLSSVTESLNTARNALTRAEQQLTQQKNTPDGKTIVSPEKFPGRSSTNHSIVVSGDPRFAGTIKITTSAVIDNRANLNYLLSHSGLDYKRNILNDRNPVVTEDVEGDKKIYNAEVAEWDKLRQRLLDARNKITSAESAVNSARNNLSARTNEQKHANDALNALLKEKENIRNQLSGINQKIAEEKRKQDELKATKDAINFTTEFLKSVSEKYGAKAEQLAREMAGQAKGKKIRNVEEALKTYEKYRADINKKINAKDRAAIAAALESVKLSDISSNLNRFSRGLGYAGKFTSLADWITEFGKAVRTENWRPLFVKTETIIAGNAATALVALVFSILTGSALGIIGYGLLMAVTGALIDESLVEKANKFWGISYWLHWIKQRPGQGLWIGSQSTHVPRT
modifications: The amino acid sequence of antibiotic PMC-AM1
[4]; [10]
  MIC: 8 µg/mL
[4]
  MIC in terms of molecular weight standard: 0.23 nmol
[4]; Embodiment 3, ratio of molar MICs
  antibacterial effect stronger than ceftazidime, levofloxacin and gentamicin: 127 to 3800 times and 127-3800 times
[4]; Embodiment 4, FIG. 6D
  MIC: 0.91 nmol
[4]; Embodiment 5, FIG. 7C
  MIC: 0.23 nmol
[1]; Embodiment 4, FIG. 6B
  MIC: 0.23 nmol
[1]; Embodiment 5, FIG. 7A
  MIC: 0.23 nmol
[2]; [8]
  MIC: 0.06 nmol
[2]; [11]
  MIC: 0.06 nmol
[6]
  survival rate in 8 days: 90%
[7]
  bacteria growth (bacteriostasis efficacy, growth curve): can only be restrained by PMC-AM1
[3]
  MIC: 0.11 nmol
[5]
  lung by microscope (pathological section): intact but had a little of cellular infiltration in parts
  weight of mice during experiment: rise
[5]; mouse, in vivo, ip
  observation of the mice's lung (TB nodules, necrosis): intact, and had no nodules and necrosis of tuberculosis; also recorded: no TB nodules and necrosis
